Results from the DeepSol protein solubility set.

Assay: soluble on expression in E. coli; label from the status in PepcDB or PDB records

Sequence	soluble on expression in E. coli
MSLKTNKLINKSFRFKQFSIEEGTCGMPISTDGVLLGSWAFSLSPTTILDIGCGTGLLSLMCAQRFPHAHITALDIEQTAYLAAEHNRQQSPWAERIECQHADILHWQPSKRFAAIICNPPYFNSGETAQHQVRATARHTISLQHQALIERLPQLLEPDGVASFILPKAEGEDFIALARQAGLFVGRYCQVQPTTDKPVHRLLFELHLSPCLPVETRLVIREQQGYSEAFCQLTRDFYLKMSEGHHHHHH	soluble
MSLALRSLIADARRLVVKVGSSLVTDDGRGLDQAAIARWAAQIAALRAAGKEVVLVSSGAIAEGMQRLGWTRRPKEIHELQAAAAVGQMGLAQVYESEFARHGIRTAQVLLTHGDLADRERYLNARSTLLTLLGLGVVPIINENDTVVTDEIKFGDNDTLGALVTNLIEGDALIILTDQRGLYTADPRKHPDARFVDEAQAGAPELEAMAGGAGSSIGKGGMLTKIVAAKRAAKSGAHTVIASGREADVLARLAGGEAIGTQLRAPTGRMAARKQWMIDHLQLRGRVVLDAGAVDKLTAGGKSLLPIGVTEVQGEFARGEVISCVDTAGREVARGLTNYSAAEARLIARKASSEIEAVLGYVSAAELVHRDNLVLLEGHHHHHH	soluble
MEERILFSQKTTIFVPVDNDSRIKPMSKDSLCAQHTDCSGCPKAMESTLIHRNLLRGQHIPKDKCTQNCMLFMIEGELLINSDEHPGTTLHEKQFILQAIGSKYEILALTDVSYILFWFNELPLLCENRYREIIDQAEGPLTYTPMVMNPRLFYLINDVAAYLDESTPACGKYIDLKCQEMVYMITNYYPLPQLRAFFYPISTYTESFQYFVMQNYSKAKNVEEFAHLGGYNTTTFRRLFRNLYGVPVYEWMLEKKREGILEDLQHSNMRITEICNRYGFDSLSHLAHFCKDSFGDTPRALRKKAANGEKIGKITD	not soluble
MSDSNTPNPPGTEERLVQQLDSYFSNTATGNETGEASAPAAPNNAAGTSDQDRPPNLAPILMLSYLNHCMSKKSFTPEDIQKSVWEQKSKKLSQEDWEFCKYFISSKELLLQLAPGKKRKTQAQALIELILKKFPGVGVEMLTRLLDPSESAYIIYDVIEQVKCEPKCDAESIKQEEFMYSQKINKKIRENNKCFKFSMVFERLRNGSSLPEEKPFAPLEFRTITSEYSNIYTQMVKATTYVELMDVMSKLKTTRLSVNELYFSAKHMQNPEKDTQDEFWEAESEKVLELQPLMIDPQLESTSRQRLKILQELALQQKMLKEVDEIISMSFELVTKSLSTGNPHNPADVQSLMINSNAPSIPDQRKNDWMEYYNLNPLGQYPISSHFPRSDRIGPKLPAVIQKISIRYCLSKEIEVIETIDEWKCREFCTYDHNLKDFRRHKCEICEVEVQECDLSLRQTKWCSHIEDQVLLMYNRVNGRLEQYVFSFETKGFKEVYCSCIEVTYRGKNGPEEPVLLTNGSEHVVIKEADPGVVKLQLVGENHVEIPAVPVQQLSAEEIEMQDAYDSSKSESESEHESEQISYNKTFISTLPMFKVRHCPLSRKDVLYVRSNNLGQYEKYDYHPTYHRFEPFKCSKCKDATSEDHLVPKYAEHCPETNEFVIHTENLFTERMEQYIYDSMTQGFRQVYYPQFLYDPSKDHTSNVFVTVNYLSTVITRDKDGRFKKEKFCDNLKKFVAIPEVEVNTFTVQELEKKKNKRRVDSDSDSFEHIEIPDMVSASP	not soluble
MGSDKIHHHHHHMTIPTSYLNHTDAEAARKARATYRDGLVAPTSGIAPGFTQANMIVLPRDWAFDFLLYAQRNPKPCPVLDVSDPGSPTTLLAPGADLRTDLPLYRIWRDGKLAEETADATSAWAERDDLVAFLIGCSFTFETPMVEAGIEIRHMTDKSNVPMYLTNRPCRPAGRLKGNMVVSMRPIPASRVADAATISGRFPAVHGAPVHVGAPEQIGISDLSKPDFGDAVRIEPGEVPVFWACGVTPQAAVMASGVPFAITHAPGHMFITDIPDTAYHA	not soluble
MITQGPNLIGIHANEKENIETKKFVNWFLNQSITDWNSNNQQKNSDQTTKTAAEYFTDQASYILPLKEKFNKSSDLELKGSSSSSNLTTSSASASLLISNNSSTASSPAPKKTNNNSNTFTAKALELFQQAANNEIIPFSDPSDFRNGTFRNNISSSFNAAVNSK	soluble
MSLYDPAEKYFNCTDIQRAFFEAGIKLGAIFHQYTGIPVNSENASMAEEFIERSTMIQPFVENVRISINNVKRSSGTYSYSSLNEKMLHAEVLINYNGKKVLGVLNYDEGLDYPVMYAKEVLEGHHHHHH	soluble
